Laboratory results: article PMC10415141 (Nucleic Acids Research, 2023)

Molecular target: T1, human MCM8 (HsMCM8), wild type, N-terminal StrepII tag and TEV site (human, UniProt Q9UJA3 1-840)
T1 sequence (looked up): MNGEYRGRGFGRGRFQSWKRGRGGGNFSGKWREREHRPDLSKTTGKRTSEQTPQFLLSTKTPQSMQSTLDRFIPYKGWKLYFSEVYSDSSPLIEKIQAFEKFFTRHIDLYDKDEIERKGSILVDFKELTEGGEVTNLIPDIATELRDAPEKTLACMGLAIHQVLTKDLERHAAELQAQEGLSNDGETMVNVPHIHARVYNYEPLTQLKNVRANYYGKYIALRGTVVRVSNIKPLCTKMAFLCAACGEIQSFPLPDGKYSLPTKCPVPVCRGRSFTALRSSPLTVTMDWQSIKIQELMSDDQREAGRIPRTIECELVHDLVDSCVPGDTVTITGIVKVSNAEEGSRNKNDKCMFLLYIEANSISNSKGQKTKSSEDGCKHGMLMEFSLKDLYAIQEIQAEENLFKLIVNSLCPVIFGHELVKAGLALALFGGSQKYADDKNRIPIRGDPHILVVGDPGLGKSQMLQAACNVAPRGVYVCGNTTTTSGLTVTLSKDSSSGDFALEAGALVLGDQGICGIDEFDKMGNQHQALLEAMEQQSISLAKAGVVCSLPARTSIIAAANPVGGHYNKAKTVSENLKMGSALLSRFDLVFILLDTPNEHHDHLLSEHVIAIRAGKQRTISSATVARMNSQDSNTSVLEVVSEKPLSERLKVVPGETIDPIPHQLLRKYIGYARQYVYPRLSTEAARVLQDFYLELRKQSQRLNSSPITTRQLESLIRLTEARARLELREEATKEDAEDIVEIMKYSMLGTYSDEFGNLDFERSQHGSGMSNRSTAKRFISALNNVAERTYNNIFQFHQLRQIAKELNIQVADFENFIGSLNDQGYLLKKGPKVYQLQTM
Assay: SEC

B1: human MCM9 truncated to the first 680 amino acids (MCM9^680), wild type, N-terminal 6xHis tag (domain or fragment)
chain: not shown
- stoichiometry N: 1
